From the supplement of paper PMC10724198
± gives the standard deviation of the averaged measurements.

Tested on: Saccharomyces cerevisiae
Assay: protein stability index of tFT-peptide fusion (C-terminal peptide) (PSI (0-1 scale)); higher = more stable (slower turnover)
Conditions: temperature: 30 C
Method: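 MPS profiling in S. cerevisiae of the yeast C-terminome library: the last 12 aa of each annotated ORF are fused to the C-terminus of a sfGFP-mCherry timer, after a GGGS linker. Cells are FACS-sorted into 8 mCherry/sfGFP bins and deep-sequenced. PSI runs from 0 (unstable) to 1 (stable); wild type and das1Δ backgrounds, two technical replicates each.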

[1] = genetic background: das1 deletion

Row | Sequence | protein stability index [1] | protein stability index (genetic background: wild type)
1 | NAKSKVFSIENN [LSG1 C-terminal 12 aa] | 0.681 ± 0.039 | 0.678 ± 0.015
2 | GDLLSLKGEIMQ [ALK2 C-terminal 12 aa] | 0.689 ± 0.022 | 0.691 ± 0.029
3 | SGKFNGKKKSRR [FAF1 C-terminal 12 aa] | 0.693 ± 0.029 | 0.666 ± 0.018
4 | YKLFKFLTRERS [BNA4 C-terminal 12 aa] | 0.7081 ± 0.0051 | 0.657 ± 0.018
5 | KTFSYKRPSTFY [RPL20A C-terminal 12 aa] | 0.6745 ± 0.0049 | 0.732 ± 0.039
6 | FRPDEMNIVTKF [PRM15 C-terminal 12 aa] | 0.68 ± 0.022 | 0.753 ± 0.024
7 | INGIIDPSELSD [ALO1 C-terminal 12 aa] | 0.69 ± 0.029 | 0.68 ± 0.0073
8 | DEKVKKMVENLQ [TRS23 C-terminal 12 aa] | 0.7295 ± 0.0065 | 0.738 ± 0.077
9 | NKTICLRNYHWL [YIR017W-A C-terminal 12 aa] | 0.702 ± 0.012 | 0.607 ± 0.0078
10 | EPFGPKMSTVQV [YHB1 C-terminal 12 aa] | 0.6732 ± 0.0032 | 0.663 ± 0.0085
11 | EVLEVAEKFKEE [DOT5 C-terminal 12 aa] | 0.696 ± 0.011 | 0.683 ± 0.018
12 | HRSFFKDIIPEL [KIN82 C-terminal 12 aa] | 0.723 ± 0.013 | 0.693 ± 0.022
13 | SITLDDLENIFN [GDS1 C-terminal 12 aa] | 0.735 ± 0.026 | 0.711 ± 0.021
14 | VMLFSSNHQALG [MAG2 C-terminal 12 aa] | 0.704 ± 0.014 | 0.693 ± 0.014
15 | ECAPVPPAVRSY [SDH9 C-terminal 12 aa] | 0.683 ± 0.011 | 0.6797 ± 0.0018
16 | AGAAWFFVKLLG [CCC1 C-terminal 12 aa] | 0.67 ± 0.017 | 0.476 ± 0.045
17 | NIIIIILYVYIH [MOR1 C-terminal 12 aa] | 0.227 ± 0.0036 | 0.228 ± 0.025
18 | DEELHPLSDEGM [DPP1 C-terminal 12 aa] | 0.691 ± 0.011 | 0.726 ± 0.061
19 | YVRFYRGKLNNP [YOL036W C-terminal 12 aa] | 0.704 ± 0.022 | 0.7 ± 0.024
20 | SQGNVYLPGVAW [NOC4 C-terminal 12 aa] | 0.707 ± 0.009 | 0.738 ± 0.081
21 | SRLFSEEKSSVH [YJL150W C-terminal 12 aa] | 0.7239 ± 0.0066 | 0.694 ± 0.024

Row | Sequence | protein stability index [1] | protein stability index (genetic background: wild type)
22 | CNNVLYIRELPN [SMX3 C-terminal 12 aa] | 0.689 ± 0.016 | 0.6801 ± 0.0029
23 | DVQGICLRNDKK [SLX4 C-terminal 12 aa] | 0.684 ± 0.011 | 0.651 ± 0.008
24 | ILTLVETLSEQE [VMA22 C-terminal 12 aa] | 0.704 ± 0.009 | 0.7049 ± 0.0056
25 | ETVGYEAYLENK [ADE2 C-terminal 12 aa] | 0.685 ± 0.014 | 0.661 ± 0.013
26 | DDGDSDSWDTNW [CEX1 C-terminal 12 aa] | 0.701 ± 0.024 | 0.702 ± 0.014
27 | DVEELREQLENC [AIM7 C-terminal 12 aa] | 0.692 ± 0.0025 | 0.723 ± 0.018
28 | DRWLNRKALNKG [BUD21 C-terminal 12 aa] | 0.695 ± 0.031 | 0.676 ± 0.021
29 | AKYALLEVLKVS [YOR102W C-terminal 12 aa] | 0.581 ± 0.0095 | 0.187 ± 0.017
30 | TALDYVSEKKKN [STE24 C-terminal 12 aa] | 0.679 ± 0.012 | 0.7093 ± 0.0027
31 | SVLQQTSKEPFW [HOS4 C-terminal 12 aa] | 0.732 ± 0.016 | 0.6975 ± 0.0026
32 | DNTTKHSSNVHT [YER079W C-terminal 12 aa] | 0.668 ± 0.014 | 0.667 ± 0.0093
33 | LEAATNFLLDSA [EDE1 C-terminal 12 aa] | 0.722 ± 0.027 | 0.6796 ± 0.004
34 | ENLVKQEAINGS [YAF9 C-terminal 12 aa] | 0.6823 ± 0.0044 | 0.6834 ± 0.0042
35 | HLPKATSLPYEK [YER097W C-terminal 12 aa] | 0.677 ± 0.0085 | 0.679 ± 0.055
36 | WEHLHSGFSKNK [ELG1 C-terminal 12 aa] | 0.723 ± 0.012 | 0.716 ± 0.019
37 | QQSESLPQQTTA [PIL1 C-terminal 12 aa] | 0.7046 ± 0.0038 | 0.737 ± 0.049
38 | KAMILTSYRYLE [CLP1 C-terminal 12 aa] | 0.675 ± 0.035 | 0.677 ± 0.056
39 | AFKKAQAEKSKK [NOP12 C-terminal 12 aa] | 0.699 ± 0.054 | 0.73 ± 0.085
40 | LCHSSHIPETLK [MSN1 C-terminal 12 aa] | 0.719 ± 0.033 | 0.663 ± 0.042
41 | ECYLITILWLHK [TDA2 C-terminal 12 aa] | 0.256 ± 0.031 | 0.289 ± 0.0072
42 | YWALGVALTGSK [YDR417C C-terminal 12 aa] | 0.6933 ± 0.0046 | 0.693 ± 0.029

Row | Sequence | protein stability index [1] | protein stability index (genetic background: wild type)
43 | ASKESSKEDVAN [MUM2 C-terminal 12 aa] | 0.69 ± 0.0096 | 0.661 ± 0.032
44 | YFLAERERINNH [PEX4 C-terminal 12 aa] | 0.721 ± 0.0079 | 0.694 ± 0.01
45 | VKDIHGRIPEML [AXL2 C-terminal 12 aa] | 0.6952 ± 0.0058 | 0.694 ± 0.015
46 | WKQGGGDFRTKK [RBA50 C-terminal 12 aa] | 0.709 ± 0.022 | 0.667 ± 0.033
47 | PDMIEELDLHED [GPD1 C-terminal 12 aa] | 0.716 ± 0.031 | 0.749 ± 0.1
48 | KDGDVVYDNGFM [CHS7 C-terminal 12 aa] | 0.7085 ± 0.007 | 0.692 ± 0.01
49 | AMFNDIWKNANE [UPS3 C-terminal 12 aa] | 0.7263 ± 0.0062 | 0.711 ± 0.015
50 | DDDEEDEIVEVA [HGH1 C-terminal 12 aa] | 0.698 ± 0.033 | 0.6572 ± 0.0019
51 | ERKPLDFLRTAK [MRPL39 C-terminal 12 aa] | 0.6743 ± 0.0021 | 0.659 ± 0.0088
52 | KDINLSEGNENE [URA8 C-terminal 12 aa] | 0.6774 ± 0.005 | 0.666 ± 0.067
53 | DIEINDDLNGVL [VPS41 C-terminal 12 aa] | 0.653 ± 0.016 | 0.708 ± 0.053
54 | QDKRSSQAIDVL [MMS21 C-terminal 12 aa] | 0.688 ± 0.015 | 0.6684 ± 0.0019
55 | REENAHLETYKV [HRK1 C-terminal 12 aa] | 0.7 ± 0.0068 | 0.694 ± 0.016
56 | RQEYKFKKSLLT [YKL131W C-terminal 12 aa] | 0.679 ± 0.018 | 0.625 ± 0.012
57 | PKALFQSRDQEH [SIC1 C-terminal 12 aa] | 0.724 ± 0.022 | 0.702 ± 0.014
58 | TGMGAAAIFIKE [POT1 C-terminal 12 aa] | 0.688 ± 0.04 | 0.752 ± 0.049
59 | LRWKKRNGIASK [NOP16 C-terminal 12 aa] | 0.636 ± 0.017 | 0.663 ± 0.028
60 | VRVPKKSKKLKK [PDR10 C-terminal 12 aa] | 0.7169 ± 0.0069 | 0.705 ± 0.012
61 | GIHPPEPIAAAA [KTI11 C-terminal 12 aa] | 0.3 ± 0.031 | 0.357 ± 0.017
62 | TKDGEVVKESKK [PET117 C-terminal 12 aa] | 0.677 ± 0.034 | 0.676 ± 0.027
63 | VVLSYSMVGSVM [MAY24 C-terminal 12 aa] | 0.4645 ± 0.0021 | 0.474 ± 0.026

Row | Sequence | protein stability index [1] | protein stability index (genetic background: wild type)
64 | ENAHMQSAESCN [YLR236C C-terminal 12 aa] | 0.682 ± 0.011 | 0.717 ± 0.074
65 | IPNIFGKFTVTS [YKL091C C-terminal 12 aa] | 0.697 ± 0.0085 | 0.683 ± 0.013
66 | DLDFLGSDIEFE [HFM1 C-terminal 12 aa] | 0.718 ± 0.016 | 0.7077 ± 0.002
67 | ESLQKNIKIETK [MUM3 C-terminal 12 aa] | 0.6981 ± 0.005 | 0.671 ± 0.051
68 | SVHLDQLLDGKE [CSI2 C-terminal 12 aa] | 0.714 ± 0.0086 | 0.669 ± 0.013
69 | FPVTLWSKVILK [YHR073W-A C-terminal 12 aa] | 0.569 ± 0.0092 | 0.559 ± 0.026
70 | EDKEIVDGKVLK [TEF4 C-terminal 12 aa] | 0.663 ± 0.016 | 0.674 ± 0.023
71 | TDTTLIYDIDLE [SPT8 C-terminal 12 aa] | 0.709 ± 0.036 | 0.718 ± 0.039
72 | VGFCGLYYYFRK [YPR195C C-terminal 12 aa] | 0.647 ± 0.018 | 0.648 ± 0.015
73 | YNINHRKSVNSV [TDA9 C-terminal 12 aa] | 0.706 ± 0.0094 | 0.6634 ± 0.0026
74 | RKVVFERMETLE [MRPS16 C-terminal 12 aa] | 0.6857 ± 0.0044 | 0.683 ± 0.031
75 | SEPVKQVLDSKE [NMA2 C-terminal 12 aa] | 0.749 ± 0.039 | 0.728 ± 0.078
76 | VIIKVFIRRSDA [YJL086C C-terminal 12 aa] | 0.515 ± 0.024 | 0.461 ± 0.014
77 | DLIKEHSKDIQV [HCH1 C-terminal 12 aa] | 0.6872 ± 0.0016 | 0.691 ± 0.012
78 | GVETIAKCIDLL [CAR2 C-terminal 12 aa] | 0.71 ± 0.017 | 0.698 ± 0.011
79 | YYNLKNCITSET [YHR050W-A C-terminal 12 aa] | 0.661 ± 0.007 | 0.6465 ± 0.0017
80 | PIICASVTFLPT [YAL056C-A C-terminal 12 aa] | 0.6572 ± 0.00082 | 0.629 ± 0.026
81 | DSSKYSLGNNSS [SUR1 C-terminal 12 aa] | 0.713 ± 0.025 | 0.686 ± 0.016
82 | ENDPWKVVRLAP [PDX3 C-terminal 12 aa] | 0.711 ± 0.019 | 0.715 ± 0.011
